In the supplement of paper PMC12764529:
± gives the half width of the 95% confidence interval.

Assays:
[1] = folding stability dG unfold from trypsin proteolysis; higher = more stable
Summary of the method: (§1)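 Only designs with AlphaFold2 dimer inter-PAE above 15 were retained; each was a mini-protein under 80 residues with no cysteine, in a PA-tagged cDNA display construct. After digestion with trypsin and chymotrypsin and sequencing, K50 was inferred by Bayesian fitting of counts, and unfolding free energy was derived per protease or combined against a sequence-predicted unfolded-state K50 and a shared folded-state K50.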

[2] = folding stability dG unfold from chymotrypsin proteolysis; higher = more stable
Summary of the method: as §1

[3] = folding stability dG unfold (combined trypsin and chymotrypsin); higher = more stable
Summary of the method: as §1

Row | Sequence | folding stability dG unfold [1] [kcal/mol] | folding stability dG unfold [2] [kcal/mol] | folding stability dG unfold [3] [kcal/mol]
1 | SIKIERDGDKIKITFKVPGPFRIMIFNNDEIQETTIPPGKPVKIEIDIPKGNFYIMIYFPGKPLAQIPFKSA [r9_411_TrROS] | 2.27 ± 0.19 | 1.96 ± 0.17 | 2.19 ± 0.31
2 | SIKIQVHMWPDGFYVIKVRFPGNGKPIHIPFPPNETAEEQVDKIANNLWKQHGFEPVEVDIYPMPKPLPPSA [r9_1205_TrROS] | 1.81 ± 0.088 | 2.25 ± 0.034 | 2.15 ± 0.12
3 | SIMIMIPPGEEIEITIEKLKDVEVMIFNNGKVREQRVPPGEEIKFELPPGAKGFMIMIKGPNGKAQMITLSA [r9_143_TrROS] | 2.74 ± 0.25 | 2.75 ± 0.081 | 2.66 ± 0.4
4 | SIRPGQRIDSLEEVKEIAHRIAEEIQKEHGHPYKVTVNVEYYPEEDGRWYVKAKWYMPNNGKPIREITIMSA [r9_794_TrROS] | 1.53 ± 0.059 | 1.88 ± 0.1 | 1.71 ± 0.19
5 | SKAEILEAPAVFNPESESATLYYLVKVTFPDPSVKLIPGVFPADYTPEQAAEEILARFKSLGLESATITPSA [r9_1203_TrMRF] | 1.5 ± 0.15 | 1.46 ± 0.12 | 1.57 ± 0.19
6 | SKATVLPNGEVVVTAEATFTLPDGTKVTVRVEVRIGPDGTLRPGVTVTVEPVPPPEKPLNIDFDPVTLPKSA [r9_1168_TrMRF] | 0.969 ± 0.13 | 2.91 ± 0.21 | 2.67 ± 0.33
7 | SKEEKPPEVKTFKVKKIEFDPETKKITVEVDGKKLTLELKPGQEVEIFKDGKEIRVVRLAPPPPEKKEKKSA [r9_551_TrROS_Hall] | 1.94 ± 0.36 | 2.95 ± 0.27 | > 6
8 | SKEKYKKPIKFTVKIEEGPVTENGEKYIKIEITYPGGYTATIIITPKKIEIKSNVPNPEKVKELVKKLVKSA [r9_662_TrMRF] | 1.62 ± 0.15 | 2.81 ± 0.14 | 2.5 ± 0.28
9 | SKEVKVKVKVVAPFYNKTKPFPLNIEVEVTVSSSNPELSPEKLTPENLAKIAAEKAREILLKLGIPEEFLSA [r9_516_TrMRF] | 2.63 ± 0.14 | 3.09 ± 0.14 | 2.86 ± 0.34
10 | SKGKKYELIVLLFKVEDPEKYPVEKKVSVPKEFIDFLKKKGFKIIEIKTRVIPSSDGSVYVEHVALVEVDSA [r9_465_TrMRF] | 2.62 ± 0.12 | 4.16 ± 0.13 | 3.82 ± 0.13
11 | SKIKKIKIVKVKPGEEITTPDGRKIKPGDIVIVDEKTNKVYSAEEIKKLLKELEEKLKKLPKKPKPKKKKSA [r9_517_TrROS_Hall] | 0.814 ± 0.07 | 1.78 ± 0.089 | 1.49 ± 0.17
12 | SKKIIKIKIEVIFPKTKKKIEIEIEMTEEEAKKLAEELKKKFKDEKVEVKIVKIEPLPPKKKKKVSKKKKSA [r9_14_TrROS_Hall] | 1.52 ± 0.099 | 1.99 ± 0.1 | 1.83 ± 0.2
13 | SKKITIEIELYRNPETKKLPLKLKAYNENGEPLGELEIEFTESPEEALEKALALAKELAESNDAEITFGLSA [r9_31_TrMRF] | 1.38 ± 0.041 | 1.92 ± 0.036 | 1.76 ± 0.057
14 | SKKIVINLENIPEENREKVLENVLKAIKEAKEKNPEKKVKITILVSPEQKEEVKKLKEELEKAGLEVEEISA [r9_1202_TrROS_Hall] | 3.81 ± 0.31 | 2.31 ± 0.089 | 2.73 ± 0.36
15 | SKKKITIEVEVEKDEETGEYTVRIRITVDGKEIEIEIKAKTPEEAKEKAKKLAEELLKKYPDKVKIEIKPSA [r9_1148_TrROS_Hall] | 2.48 ± 0.11 | 1.98 ± 0.029 | 2.21 ± 0.15
16 | SKKKKIIKIDIKPEDIEKGIKAVREAIKKAKEAEPDTEVIIDFHFESDYPEKVKEIEDLFKKENIPLKIGSA [r9_1202_TrMRF] | 1.39 ± 0.11 | 0.883 ± 0.048 | 1.31 ± 0.18
17 | SKKKKKLTAEEIAKKLEEKLKEEFGIEEIKITKIEFDKETKEITITMEITYKKKKNEKITITKKIKVEDLSA [r9_1002_TrROS_Hall] | 2.08 ± 0.24 | 2.5 ± 0.12 | 2.28 ± 0.63
18 | SKKKVKTETVTLKIVNEKTGEEVELTLEFYEDGTVVKVTFPDGTTKEIKVGKTLEELLSLPPNAKIELIPSA [r9_781_TrROS_Hall] | 0.315 ± 0.12 | 2 ± 0.11 | 1.56 ± 0.11
19 | SKKMTAEELLKKFPNVVFIRLKNGKIIAFNKETKEIYIFNLKTGKVEKIKVTPEELEKLAKENNFEIYPVSA [r9_721_TrROS_Hall] | 2.48 ± 0.078 | 3.32 ± 0.064 | 3.12 ± 0.12
20 | SKKPKVEIEIEIPSVISATPIPNTDEVLVNVPYRVKIKVIGEGPPKEVEVDLPGIMLVSDFIDELKKLLGSA [r9_656_TrMRF] | 1.72 ± 0.072 | 1.74 ± 0.046 | 1.74 ± 0.098
21 | SKKVEVKEIEIKLADGSKVKAKIVKLPDGTYRIFVEFPDGRVAVFEIDVNGKIVKVKPLEVFSLEELKKKSA [r9_1075_TrROS_Hall] | 1.07 ± 0.12 | 0.836 ± 0.47 | 1.17 ± 0.22
22 | SKKVLFIEAKSEEELKAAVKALLDAGYDEIVVSSPEAAKALKELLPDVKVTLVEVKPEKKLSEEEKKKLKSA [r9_639_TrROS_Hall] | 0.505 ± 0.33 | 1.42 ± 0.096 | 1.05 ± 0.26
23 | SKKYKIKKVTIFVYKNGKVEEKEVDLTVDELKALEDAGFEVVKVEEKDGYITVVIKKDGYLVIIKIEIEPSA [r9_5_TrROS_Hall] | 2.73 ± 0.18 | 3.9 ± 0.2 | 3.52 ± 0.37
24 | SKLKPGDIVKLENGEYYRIKKIEISYDKETKEFTIKAEIEPAPPVETETETKTNADGSTETVTKTKVELPSA [r9_914_TrROS_Hall] | 0.701 ± 0.061 | 2.366 ± 0.021 | 1.95 ± 0.042
25 | SKMKIKIEVEKVEDGYLKITITAESKEEAEKAIKELAKKLFGIEEVKVEYDKETKKITVEIIIRPPGEKVSA [r9_1120_TrROS_Hall] | 2 ± 0.17 | 3.61 ± 0.18 | 2.95 ± 0.35
26 | SKPMSPRDQLREIADDIAEKLNEKNGKPYKVRVEFEYPNMPFEIEIPPEAPIEDIMDHFPGWKIKVEIEPSA [r9_513_TrROS] | 0.00988 ± 0.15 | 0.0344 ± 0.32 | 0.0339 ± 0.52
